Experimental data taken from PMC10836395, “Investigation of how gate residues in the main channel affect the catalytic activity of Scytalidium thermophilum catalase” (Acta Crystallographica. Section D, Structural Biology, 2024).

Key:
CATPO = CATPO (Scytalidium thermophilum (Humicola insolens), UniProt M4GGR5); experiment: Inhibition of catechol oxidation; type: biochemical
CATPO E484I variant = CATPO E484I variant (Scytalidium thermophilum (Humicola insolens), UniProt M4GGR5, E503I); experiment: biochemical; details: catechol oxidation by E484I; read-out: K i
CATPO E484A variant = CATPO E484A variant (Scytalidium thermophilum (Humicola insolens), UniProt M4GGR5, E503A); experiment: biochemical; details: catechol oxidation by E484A; read-out: K i
CATPO T188D variant = CATPO T188D variant (Scytalidium thermophilum (Humicola insolens), UniProt M4GGR5, T207D); experiment: biochemical; details: catechol oxidation by T188D; read-out: K i
CATPO T188A variant = CATPO T188A variant (Scytalidium thermophilum (Humicola insolens), UniProt M4GGR5, T207A); experiment: biochemical; details: catechol oxidation by T188A; read-out: K i
CATPO E484D variant = CATPO E484D variant (Scytalidium thermophilum (Humicola insolens), UniProt M4GGR5, E503D); experiment: biochemical; details: catechol oxidation by E484D; read-out: K i
CATPO T188F variant = CATPO T188F variant (Scytalidium thermophilum (Humicola insolens), UniProt M4GGR5, T207F); experiment: biochemical; details: catechol oxidation by T188F; read-out: K i
CATPO T188I variant = CATPO T188I variant (Scytalidium thermophilum (Humicola insolens), UniProt M4GGR5, T207I); experiment: biochemical; details: catechol oxidation by T188I; read-out: K i
[1] = substrate: CCn1c(=NN=c2sc3cc(S(=O)(=O)O)ccc3n2CC)sc2cc(S(=O)(=O)O)ccc21; experiment: purified protein, by the assay type; details: 60.0 °C
[2] = substrate: Oc1ccccc1O; experiment: Phenol oxidase activity (H2O2-independent) measured spectrophotometrically by product formation at pH 7.0, 60 C, Michaelis-Menten fit.; type: biochemical
Procedure: (§1) All inhibition assays were performed in triplicate.

[3] = substrate: Cc1ccc(O)c(O)c1; experiment: Spectrophotometric phenol oxidase assay without H2O2 at pH 7.0 and 60 °C, initial rates fitted to the Michaelis-Menten equation.; type: biochemical
Procedure: as §1

[4] = substrate: CC(C)(C)c1ccc(O)c(O)c1; experiment: as above; type: biochemical
Procedure: as §1

[5] = substrate: Oc1ccc(O)cc1; experiment: as above; type: biochemical
Procedure: as §1

Chain of CATPO (M4GGR5 entry or part of it): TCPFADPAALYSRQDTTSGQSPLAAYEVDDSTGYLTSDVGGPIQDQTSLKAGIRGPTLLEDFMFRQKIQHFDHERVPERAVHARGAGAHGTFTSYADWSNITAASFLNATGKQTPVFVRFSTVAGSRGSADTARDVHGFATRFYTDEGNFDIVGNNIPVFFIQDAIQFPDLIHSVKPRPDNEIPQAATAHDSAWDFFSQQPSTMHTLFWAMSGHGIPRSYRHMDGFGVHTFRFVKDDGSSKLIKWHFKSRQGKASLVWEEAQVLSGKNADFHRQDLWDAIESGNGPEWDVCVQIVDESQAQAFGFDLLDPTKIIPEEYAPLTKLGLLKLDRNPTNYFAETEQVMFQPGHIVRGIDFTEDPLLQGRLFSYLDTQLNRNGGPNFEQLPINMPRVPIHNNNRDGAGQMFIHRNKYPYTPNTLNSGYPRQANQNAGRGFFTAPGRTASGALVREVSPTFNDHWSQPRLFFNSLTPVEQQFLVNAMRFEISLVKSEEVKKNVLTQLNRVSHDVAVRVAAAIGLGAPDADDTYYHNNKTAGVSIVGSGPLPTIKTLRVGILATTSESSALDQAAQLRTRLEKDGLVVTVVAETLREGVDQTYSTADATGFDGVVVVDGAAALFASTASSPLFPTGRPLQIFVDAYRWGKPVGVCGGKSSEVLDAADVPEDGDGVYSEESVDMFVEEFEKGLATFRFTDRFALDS
Chain of CATPO T188A variant (M4GGR5 entry or part of it T207A): as the sequence (M4GGR5 entry or part of it) above
Chain of CATPO E484D variant (M4GGR5 entry or part of it E503D): as the sequence (M4GGR5 entry or part of it) above
Chain of CATPO T188D variant (M4GGR5 entry or part of it T207D): as the sequence (M4GGR5 entry or part of it) above
Chain of CATPO T188F variant (M4GGR5 entry or part of it T207F): as the sequence (M4GGR5 entry or part of it) above
Chain of CATPO E484A variant (M4GGR5 entry or part of it E503A): as the sequence (M4GGR5 entry or part of it) above
Chain of CATPO E484I variant (M4GGR5 entry or part of it E503I): as the sequence (M4GGR5 entry or part of it) above
Chain of CATPO T188I variant (M4GGR5 entry or part of it T207I): as the sequence (M4GGR5 entry or part of it) above

Molecule: [N-]=[N+]=[N-].[Na+] [Sodium azide, sodium azide]
- inhibition type (CATPO; catechol oxidase activity of wild-type CATPO, Lineweaver–Burk): competitive
- Ki (CATPO; catechol oxidation by CATPO, catechol 1 to 100 mM, read-out: K i): 42 ± 1.2 mM
- Ki (CATPO E484I variant): 56 ± 1.6 mM
- Ki (CATPO E484A variant): 74 ± 4.8 mM
- Ki (CATPO T188D variant): 55 ± 5 mM
- Ki (CATPO T188A variant): 42 ± 1.4 mM
- Ki (CATPO E484D variant): 41 ± 4.1 mM
- Ki (CATPO T188F variant): 62 ± 2.5 mM
- Ki (CATPO T188I variant): 60 ± 6 mM

B1: T188F (Mycothermus thermophilus; T207F) (protein)
chain: TCPFADPAALYSRQDTTSGQSPLAAYEVDDSTGYLTSDVGGPIQDQTSLKAGIRGPTLLEDFMFRQKIQHFDHERVPERAVHARGAGAHGTFTSYADWSNITAASFLNATGKQTPVFVRFSTVAGSRGSADTARDVHGFATRFYTDEGNFDIVGNNIPVFFIQDAIQFPDLIHSVKPRPDNEIPQAAFAHDSAWDFFSQQPSTMHTLFWAMSGHGIPRSYRHMDGFGVHTFRFVKDDGSSKLIKWHFKSRQGKASLVWEEAQVLSGKNADFHRQDLWDAIESGNGPEWDVCVQIVDESQAQAFGFDLLDPTKIIPEEYAPLTKLGLLKLDRNPTNYFAETEQVMFQPGHIVRGIDFTEDPLLQGRLFSYLDTQLNRNGGPNFEQLPINMPRVPIHNNNRDGAGQMFIHRNKYPYTPNTLNSGYPRQANQNAGRGFFTAPGRTASGALVREVSPTFNDHWSQPRLFFNSLTPVEQQFLVNAMRFEISLVKSEEVKKNVLTQLNRVSHDVAVRVAAAIGLGAPDADDTYYHNNKTAGVSIVGSGPLPTIKTLRVGILATTSESSALDQAAQLRTRLEKDGLVVTVVAETLREGVDQTYSTADATGFDGVVVVDGAAALFASTASSPLFPTGRPLQIFVDAYRWGKPVGVCGGKSSEVLDAADVPEDGDGVYSEESVDMFVEEFEKGLATFRFTDRFALDS
notes: recombinant, pET-28-TEV-CATPO; contains heme b; Rz 0.8
- Km [1]: 45 ± 0.5 mM
- Km [2]: 30 ± 1.0 mM
- kcat [2]: 30600 ± 1800 s⁻¹
- kcat/Km [2]: 1.02e+06 ± 22000 M⁻¹ s⁻¹
- Km [3]: 32 ± 1.0 mM
- Km [4]: 34 ± 0.4 mM
- Km [5]: 42 ± 1.0 mM

B2: E484A (Mycothermus thermophilus; E503A) (protein)
chain: TCPFADPAALYSRQDTTSGQSPLAAYEVDDSTGYLTSDVGGPIQDQTSLKAGIRGPTLLEDFMFRQKIQHFDHERVPERAVHARGAGAHGTFTSYADWSNITAASFLNATGKQTPVFVRFSTVAGSRGSADTARDVHGFATRFYTDEGNFDIVGNNIPVFFIQDAIQFPDLIHSVKPRPDNEIPQAATAHDSAWDFFSQQPSTMHTLFWAMSGHGIPRSYRHMDGFGVHTFRFVKDDGSSKLIKWHFKSRQGKASLVWEEAQVLSGKNADFHRQDLWDAIESGNGPEWDVCVQIVDESQAQAFGFDLLDPTKIIPEEYAPLTKLGLLKLDRNPTNYFAETEQVMFQPGHIVRGIDFTEDPLLQGRLFSYLDTQLNRNGGPNFEQLPINMPRVPIHNNNRDGAGQMFIHRNKYPYTPNTLNSGYPRQANQNAGRGFFTAPGRTASGALVREVSPTFNDHWSQPRLFFNSLTPVEQQFLVNAMRFAISLVKSEEVKKNVLTQLNRVSHDVAVRVAAAIGLGAPDADDTYYHNNKTAGVSIVGSGPLPTIKTLRVGILATTSESSALDQAAQLRTRLEKDGLVVTVVAETLREGVDQTYSTADATGFDGVVVVDGAAALFASTASSPLFPTGRPLQIFVDAYRWGKPVGVCGGKSSEVLDAADVPEDGDGVYSEESVDMFVEEFEKGLATFRFTDRFALDS
notes: as for B1
- Km [1]: 46 ± 1.0 mM
- Km [2]: 30 ± 1.0 mM
- kcat/Km [2]: 1.45e+06 ± 13000 M⁻¹ s⁻¹
- Km [3]: 33 ± 1.0 mM
- Km [4]: 33 ± 0.5 mM
- Km [5]: 43 ± 1.2 mM

B3: E484D (Mycothermus thermophilus; E503D) (protein)
chain: TCPFADPAALYSRQDTTSGQSPLAAYEVDDSTGYLTSDVGGPIQDQTSLKAGIRGPTLLEDFMFRQKIQHFDHERVPERAVHARGAGAHGTFTSYADWSNITAASFLNATGKQTPVFVRFSTVAGSRGSADTARDVHGFATRFYTDEGNFDIVGNNIPVFFIQDAIQFPDLIHSVKPRPDNEIPQAATAHDSAWDFFSQQPSTMHTLFWAMSGHGIPRSYRHMDGFGVHTFRFVKDDGSSKLIKWHFKSRQGKASLVWEEAQVLSGKNADFHRQDLWDAIESGNGPEWDVCVQIVDESQAQAFGFDLLDPTKIIPEEYAPLTKLGLLKLDRNPTNYFAETEQVMFQPGHIVRGIDFTEDPLLQGRLFSYLDTQLNRNGGPNFEQLPINMPRVPIHNNNRDGAGQMFIHRNKYPYTPNTLNSGYPRQANQNAGRGFFTAPGRTASGALVREVSPTFNDHWSQPRLFFNSLTPVEQQFLVNAMRFDISLVKSEEVKKNVLTQLNRVSHDVAVRVAAAIGLGAPDADDTYYHNNKTAGVSIVGSGPLPTIKTLRVGILATTSESSALDQAAQLRTRLEKDGLVVTVVAETLREGVDQTYSTADATGFDGVVVVDGAAALFASTASSPLFPTGRPLQIFVDAYRWGKPVGVCGGKSSEVLDAADVPEDGDGVYSEESVDMFVEEFEKGLATFRFTDRFALDS
notes: recombinant, pET-28-TEV-CATPO; contains heme d; Rz 0.8
- Km [1]: 53 ± 1.0 mM
- Km [2]: 35 ± 0.5 mM
- kcat [2]: 7400 ± 296 s⁻¹
- kcat/Km [2]: 210000 ± 10500 M⁻¹ s⁻¹
- Km [3]: 36 ± 0.1 mM
- Km [4]: 38 ± 0.5 mM
- Km [5]: 46 ± 0.8 mM
